Assays:
HeLa Kyoto [1] = experiment: solubility in G1/S (NP-40 vs SDS abundance) (log2 ratio); higher = more soluble; details: cell cycle stage: G1/S
HeLa Kyoto [2] = experiment: melting temperature (median over replicates), in situ; higher = more thermally stable
HeLa Kyoto [3] = experiment: solubility change mitosis vs G1/S (difference of NP-40 vs SDS log2 ratios) (log2 ratio difference); higher = more soluble in mitosis
HeLa Kyoto [4] = experiment: thermal stability score vs G1/S (z-score of summed log2 fold changes over temperatures); higher = more thermally stable than in G1/S
[5] = cell cycle stage: early G1 (4.5 h after nocodazole release)
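For melting temperature (median over replicates), in situ in this document: HeLa Kyoto cells synchronized by double thymidine or nocodazole block, proteins quantified by TMT10plex mass spectrometry, three independent biological replicates.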
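For solubility change mitosis vs G1/S (difference of NP-40 vs SDS log2 ratios) in this document: synchronized HeLa Kyoto cells (double thymidine block for G1/S, nocodazole release for mitosis), protein amounts in NP-40 versus SDS lysates quantified by mass spectrometry, three biological replicates.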
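For solubility in G1/S (NP-40 vs SDS abundance) in this document: HeLa Kyoto cells arrested at G1/S by double thymidine block, proteins quantified by TMT10plex mass spectrometry in mild NP-40 versus SDS extracts, three biological replicates.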
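For thermal stability score vs G1/S (z-score of summed log2 fold changes over temperatures) in this document: synchronized HeLa Kyoto cells, proteins quantified by TMT10plex mass spectrometry, three biological replicates, mitosis taken 0.5 h after nocodazole release, G1/S directly after double thymidine block.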

Substance | solubility in G1/S (log2) (HeLa Kyoto [1]) | melting temperature (HeLa Kyoto [2]; cell cycle stage: G1/S) [°C] | melting temperature (HeLa Kyoto [2]; cell cycle stage: mitosis) [°C] | solubility change mitosis (log2) (HeLa Kyoto [3]) | thermal stability score (HeLa Kyoto [4]; [5]) | thermal stability score (HeLa Kyoto [4]; cell cycle stage: mitosis)
MRNLKLFRTLEFRDIQGPGNPQCFSLRTEQGTVLIGSEHGLIEVDPVSREVKNEVSLVAEGFLPEDGSGRIVGVQDLLDQESVCVATASGDVILCSLSTQQLECVGSVASGISVMSWSPDQELVLLATGQQTLIMMTKDFEPILEQQIHQDDFGESKFITVGWGRKETQFHGSEGRQAAFQMQMHESALPWDDHRPQVTWRGDGQFFAVSVVCPETGARKVRVWNREFALQSTSEPVAGLGPALAWKPSGSLIASTQDKPNQQDIVFFEKNGLLHGHFTLPFLKDEVKVNDLLWNADSSVLAVWLEDLQREESSIPKTCVQLWTVGNYHWYLKQSLSFSTCGKSKIVSLMWDPVTPYRLHVLCQGWHYLAYDWHWTTDRSVGDNSSDLSNVAVIDGNRVLVTVFRQTVVPPPMCTYQLLFPHPVNQVTFLAHPQKSNDLAVLDASNQISVYKCGDCPSADPTVKLGAVGGSGFKVCLRTPHLEKRYKIQFENNEDQDVNPLKLGLLTWIEEDVFLAVSHSEFSPRSVIHHLTAASSEMDEEHGQLNVSSSAAVDGVIISLCCNSKTKSVVLQLADGQIFKYLWESPSLAIKPWKNSGGFPVRFPYPCTQTELAMIGEEECVLGLTDRCRFFINDIEVASNITSFAVYDEFLLLTTHSHTCQCFCLRDASFKTLQAGLSSNHVSHGEVLRKVERGSRIVTVVPQDTKLVLQMPRGNLEVVHHRALVLAQIRKWLDKLMFKEAFECMRKLRINLNLIYDHNPKVFLGNVETFIKQIDSVNHINLFFTELKEEDVTKTMYPAPVTSSVYLSRDPDGNKIDLVCDAMRAVMESINPHKYCLSILTSHVKKTTPELEIVLQKVHELQGNAPSDPDAVSAEEALKYLLHLVDVNELYDHSLGTYDFDLVLMVAEKSQKDPKEYLPFLNTLKKMETNYQRFTIDKYLKRYEKAIGHLSKCGPEYFPECLNLIKDKNLYNEALKLYSPSSQQYQDISIAYGEHLMQEHMYEPAGLMFARCGAHEKALSAFLTCGNWKQALCVAAQLNFTKDQLVGLGRTLAGKLVEQRKHIDAAMVLEECAQDYEEAVLLLLEGAAWEEALRLVYKYNRLDIIETNVKPSILEAQKNYMAFLDSQTATFSRHKKRLLVVRELKEQAQQAGLDDEVPHGQESDLFSETSSVVSGSEMSGKYSHSNSRISARSSKNRRKAERKKHSLKEGSPLEDLALLEALSEVVQNTENLKDEVYHILKVLFLFEFDEQGRELQKAFEDTLQLMERSLPEIWTLTYQQNSATPVLGPNSTANSIMASYQQQKTSVPVLDAELFIPPKINRRTQWKLSLLD [IKBKAP] | -0.206 | 50.2 | 50 | -0.15 | 0.962 | -0.0976
MAASEVAGVVANAPSPPESSSLCASKSDEGLPDGLSTKDSAQKQKNSPLLSVSSQTITKENNRNVHLEHSEQNPGSSAGDTSAAHQVVLGENLIATALCLSGSGSQSDLKDVASTAGEEGDTSLRESLHPVTRSLKAGCHTKQLASRNCSEEKSPQTSILKEGNRDTSLDFRPVVSPANGVEGVRVDQDDDQDSSSLKLSQNIAVQTDFKTADSEVNTDQDIEKNLDKMMTERTLLKERYQEVLDKQRQVENQLQVQLKQLQQRREEEMKNHQEILKAIQDVTIKREETKKKIEKEKKEFLQKEQDLKAEIEKLCEKGRREVWEMELDRLKNQDGEINRNIMEETERAWKAEILSLESRKELLVLKLEEAEKEAELHLTYLKSTPPTLETVRSKQEWETRLNGVRIMKKNVRDQFNSHIQLVRNGAKLSSLPQIPTPTLPPPPSETDFMLQVFQPSPSLAPRMPFSIGQVTMPMVMPSADPRSLSFPILNPALSQPSQPSSPLPGSHGRNSPGLGSLVSPHGPHMPPAASIPPPPGLGGVKASAETPRPQPVDKLEKILEKLLTRFPQCNKAQMTNILQQIKTARTTMAGLTMEELIQLVAARLAEHERVAASTQPLGRIRALFPAPLAQISTPMFLPSAQVSYPGRSSHAPATCKLCLMCQKLVQPSELHPMACTHVLHKECIKFWAQTNTNDTCPFCPTLK [RNF214] | 0.486 | 49.8 | 51.5 | -0.0773 | -0.221 | -0.95
MATRSCREKAQKLNEQHQLILSKLLREEDNKYCADCEAKGPRWASWNIGVFICIRCAGIHRNLGVHISRVKSVNLDQWTAEQIQCMQDMGNTKARLLYEANLPENFRRPQTDQAVEFFIRDKYEKKKYYDKNAIAITNISSSDAPLQPLVSSPSLQAAVDKNKLEKEKEKKKEEKKREKEPEKPAKPLTAEKLQKKDQQLEPKKSTSPKKAAEPTVDLLGLDGPAVAPVTNGNTTVPPLNDDLDIFGPMISNPLPATVMPPAQGTPSAPAAATLSTVTSGDLDLFTEQTTKSEEVAKKQLSKDSILSLYGTGTIQQQSTPGVFMGPTNIPFTSQAPAAFQGFPSMGVPVPAAPGLIGNVMGQSPSMMVGMPMPNGFMGNAQTGVMPLPQNVVGPQGGMVGQMGAPQSKFGLPQAQQPQWSLSQMNQQMAGMSISSATPTAGFGQPSSTTAGWSGSSSGQTLSTQLWK [SMAP1] | -0.0223 | 51.2 | 51.3 | -0.142 | 0.468 | -0.266
GOLGB1 | 0.115 | 48.6 | 49.9 | -0.0748 | 1.43 | 4.58
MAFLKLRDQPSLVQAIFNGDPDEVRALIFKKEDVNFQDNEKRTPLHAAAYLGDAEIIELLILSGARVNAKDSKWLTPLHRAVASCSEEAVQVLLKHSADVNARDKNWQTPLHIAAANKAVKCAEALVPLLSNVNVSDRAGRTALHHAAFSGHGEMVKLLLSRGANINAFDKKDRRAIHWAAYMGHIEVVKLLVSHGAEVTCKDKKSYTPLHAAASSGMISVVKYLLDLGVDMNEPNAYGNTPLHVACYNGQDVVVNELIDCGAIVNQKNEKGFTPLHFAAASTHGALCLELLVGNGADVNMKSKDGKTPLHMTALHGRFSRSQTIIQSGAVIDCEDKNGNTPLHIAARYGHELLINTLITSGADTAKRGIHGMFPLHLAALSGFSDCCRKLLSSGFDIDTPDDFGRTCLHAAAAGGNLECLNLLLNTGADFNKKDKFGRSPLHYAAANCNYQCLFALVGSGASVNDLDERGCTPLHYAATSDTDGKCLEYLLRNDANPGIRDKQGYNAVHYSAAYGHRLCLQLIASETPLDVLMETSGTDMLSDSDNRATISPLHLAAYHGHHQALEVLVQSLLDLDVRNSSGRTPLDLAAFKGHVECVDVLINQGASILVKDYILKRTPIHAAATNGHSECLRLLIGNAEPQNAVDIQDGNGQTPLMLSVLNGHTDCVYSLLNKGANVDAKDKWGRTALHRGAVTGHEECVDALLQHGAKCLLRDSRGRTPIHLSAACGHIGVLGALLQSAASMDANPATADNHGYTALHWACYNGHETCVELLLEQEVFQKTEGNAFSPLHCAVINDNEGAAEMLIDTLGASIVNATDSKGRTPLHAAAFTDHVECLQLLLSHNAQVNSVDSTGKTPLMMAAENGQTNTVEMLVSSASAELTLQDNSKNTALHLACSKGHETSALLILEKITDRNLINATNAALQTPLHVAARNGLTMVVQELLGKGASVLAVDENGYTPALACAPNKDVADCLALILATMMPVSSSSPLSSLTFNAINRYTNTSKTVSFEALPIMRNEPSSYCSFNNIGGEQEYLYTDVDELNDSDSETY [ANKRD28] | -0.288 | 51.2 | 50.8 | -0.133 | -0.536 | -1.19
MYALFLLASLLGAALAGPVLGLKECTRGSAVWCQNVKTASDCGAVKHCLQTVWNKPTVKSLPCDICKDVVTAAGDMLKDNATEEEILVYLEKTCDWLPKPNMSASCKEIVDSYLPVILDIIKGEMSRPGEVCSALNLCESLQKHLAELNHQKQLESNKIPELDMTEVVAPFMANIPLLLYPQDGPRSKPQPKDNGDVCQDCIQMVTDIQTAVRTNSTFVQALVEHVKEECDRLGPGMADICKNYISQYSEIAIQMMMHMQPKEICALVGFCDEVKEMPMQTLVPAKVASKNVIPALELVEPIKKHEVPAKSDVYCEVCEFLVKEVTKLIDNNKTEKEILDAFDKMCSKLPKSLSEECQEVVDTYGSSILSILLEEVSPELVCSMLHLCSGTRLPALTVHVTQPKDGGFCEVCKKLVGYLDRNLEKNSTKQEILAALEKGCSFLPDPYQKQCDQFVAEYEPVLIEILVEVMDPSFVCLKIGACPSAHKPLLGTEKCIWGPSYWCQNTETAAQCNAVEHCKRHVWN [PSAP] | 0.0145 | 58.6 | 56.3 | 0.32 | -1.22 | -0.0458
MAMQKIFAREILDSRGNPTVEVDLHTAKGRFRAAVPSGASTGIYEALELRDGDKGRYLGKGVLKAVENINNTLGPALLQKKLSVVDQEKVDKFMIELDGTENKSKFGANAILGVSLAVCKAGAAEKGVPLYRHIADLAGNPDLILPVPAFNVINGGSHAGNKLAMQEFMILPVGASSFKEAMRIGAEVYHHLKGVIKAKYGKDATNVGDEGGFAPNILENNEALELLKTAIQAAGYPDKVVIGMDVAASEFYRNGKYDLDFKSPDDPARHITGEKLGELYKSFIKNYPVVSIEDPFDQDDWATWTSFLSGVNIQIVGDDLTVTNPKRIAQAVEKKACNCLLLKVNQIGSVTESIQACKLAQSNGWGVMVSHRSGETEDTFIADLVVGLCTGQIKTGAPCRSERLAKYNQLMRIEEALGDKAIFAGRKFRNPKAK [ENO3] | 0.117 | 55.2 | 56.6 | 0.0137 | -0.939 | -1.58

— the supplement of paper PMC5998384
